From US9758785B2, “miR-520 microRNAs sensitize cancers to platinum-based therapy” (BAYLOR COLLEGE OF MEDICINE, priority 2012, dated 2017)
Entries after “also recorded” stand apart in the source; their conditions may differ.

Tests used:
Type in all cases: cell-based, human
[1] = tested on: established ovarian cancer cell lines; experiment: Proliferation or apoptosis in established ovarian cancer cell lines after mimic transfection; conditions: mimics vs control cultures; cell lines SKOV4, HEY, OVCAR8, OVCAR5
Description: Established ovarian cancer cell lines were obtained from the ATCC (OVCAR8, OVCAR5) and the University of Texas M.D. Anderson Cancer Center (HEYA8, SKOV3ip1). All cell lines were maintained at 37° C. in RPMI 1640 media (Invitrogen, Carlsbad, Calif.) supplemented with 10% fetal bovine serums (Hyclone, Logan, Utah) and 1% penicillin/streptomycin (Gibco, Carlsbad, Calif.). MicroRNA mimics and mimic controls (Dharmacon, Lafayette, Colo.) were transiently transfected into actively growing cultures using Lipofectamine 2000 (Invitrogen, Carlsbad, Calif.). After a 24-hour incubation, transfected cultures were washed, passaged and seeded into 96 well plates. Proliferation and apoptosis were measured at 72, 96 and 120 hours after transfection using standard assays (Cell Titer 96 Aqueous One; Caspase Glo 3/7; Promega, Madison, Wis.). pLemiR expression vectors (Open Biosystems/Thermo, Huntsville, Ala.) were prepared according to manufacturer's instructions and transfected into cells using Fugene 6 (Roche, Indianapolis, Ind.). Following transfection, stable clones were selected using puromycin (Invitrogen) at doses optimized for each line. […] Viability was assessed across a clinically relevant range of cisplatin concentrations using an MTS assay (Promega). […]

CDC25c [2] = experiment: Western blot of CDC25c in OVCAR8 cells; conditions: OVCAR8, particularly when exposed to cisplatin; listed as miR-520g/h
Description: (§1) Whole cell lysates equivalent to 30 μg of protein were resolved on 4-12% gradient SDS-PAGE. Resolved proteins were transferred onto PVDF membranes using the iBlot system (Invitrogen). Rabbit polyclonal and/or mouse monoclonal antibodies specifically recognizing ATM, phospo-ATM (Ser1981) CHK1 phospho-CHK1 (Ser216), p21, phospo-CHK2 ([…]), BCL2, XIAP, CDC25A were obtained from Cell Signaling Technologies (Danvers, Mass.). A rabbit polyclonal antibody recognizing FANCD2 was also purchased from Abcam (Cambridge, Mass.). Protein expression was visualized using species-specific, horseradish peroxidase-conjugated secondary antibody (Cell Signaling) and ECL Plus chemiluminescent substrate (Amersham, Buckinghamshire, UK).

OVCAR8 cells [3] = experiment: Viability (MTS) across cisplatin concentrations, stable microRNA clones; conditions: OVCAR8 stable clones vs non-silencing mimic, cisplatin <5 μg/mL
Description: (§2) Established ovarian cancer cell lines were obtained from the ATCC (OVCAR8, OVCAR5) and the University of Texas M.D. Anderson Cancer Center (HEYA8, SKOV3ip1). All cell lines were maintained at 37° C. in RPMI 1640 media (Invitrogen, Carlsbad, Calif.) supplemented with 10% fetal bovine serums (Hyclone, Logan, Utah) and 1% penicillin/streptomycin (Gibco, Carlsbad, Calif.). MicroRNA mimics and mimic controls (Dharmacon, Lafayette, Colo.) were transiently transfected into actively growing cultures using Lipofectamine 2000 (Invitrogen, Carlsbad, Calif.). After a 24-hour incubation, transfected cultures were washed, passaged and seeded into 96 well plates. Proliferation and apoptosis were measured at 72, 96 and 120 hours after transfection using standard assays (Cell Titer 96 Aqueous One; Caspase Glo 3/7; Promega, Madison, Wis.). pLemiR expression vectors (Open Biosystems/Thermo, Huntsville, Ala.) were prepared according to manufacturer's instructions and transfected into cells using Fugene 6 (Roche, Indianapolis, Ind.). Following transfection, stable clones were selected using puromycin (Invitrogen) at doses optimized for each line. Rates of proliferation and apoptosis were examined in stable transfectants 24, 48, 72 and 96 hours after selected cells had been passaged and dispensed into 96 well plates. Viability was assessed across a clinically relevant range of cisplatin concentrations using an MTS assay (Promega). Cisplatin was obtained from Teva Pharmaceuticals (Irvine, Calif.).
(§3) For this reason, the inventors created clones of OVCAR8 and SKOV3ip1 ovarian cancer cell lines stably expressing either miR-520h (n=3) and miR-520a (n=3). […] To assess the impact of these microRNAs on cisplatin-induced cell killing, the inventors examined the viability of OVCAR8 and SKOV3ip1 cells stably expressing either microRNA incubated with clinically relevant concentrations of cisplatin. […] It should be noted that SKOV3ip1 cells tolerated only very low levels of miR-520a expression. The impact of cisplatin treatment on rates of apoptosis differed dramatically between the two cell lines.

SKOV3ip1 cells = experiment: as above; conditions: SKOV3ip1 stable clones vs non-silencing mimic
Description: as §2, §3

SVOK3ip1 cells = experiment: Spheroid formation; conditions: cells stably expressing mimics
ATM transcript = experiment: qPCR of ATM transcript in OVCAR8 cells; conditions: OVCAR8, qPCR vs non-silencing control, baseline without cisplatin
Description: (§4) Total RNA was extracted from cell pellets using the mirVana miRNA extraction kit (Ambion, Austin, Tex.) according to the manufacturer's instructions. Levels of microRNA expression were examined using Mature MicroRNA Taqman assays (Applied Biosystems, Foster City, Calif.) using U6 as a control. For all gene expression assays, cDNA was prepared using qScript cDNA supermix (Quanta Biosciences, Gaithersburg, Md.). TaqMan gene expression assays (Applied Biosystems) were used to measure expression of specific target genes according to the manufacturer's instructions. All reactions were performed in triplicate using OneStepPlus real time PCR system (Applied Biosystems). All qPCR results are reported using the ΔΔCT method (17).

CHK1 = experiment: qPCR gene response to cisplatin in OVCAR8 cells; conditions: OVCAR8 stable clones vs non-silencing control
Description: as §4

CHK2 = experiment: qPCR gene response to cisplatin in OVCAR8 cells; conditions: OVCAR8 stable clones vs non-silencing control
Description: as §4

CDC25c [4] = experiment: qPCR gene response to cisplatin in OVCAR8 cells; conditions: OVCAR8 stable clones vs non-silencing control
Description: as §4

BRCA1 = experiment: qPCR gene response to cisplatin in OVCAR8 cells; conditions: OVCAR8 stable clones vs non-silencing control
Description: as §4

CASP7 = experiment: qPCR gene response to cisplatin in OVCAR8 cells; conditions: OVCAR8 stable clones vs non-silencing control
Description: as §4

OVCAR8 cells [5] = experiment: Spheroid formation; conditions: cells stably expressing mimics
OVCAR8 cells [6] = experiment: Proliferation assay (MTS, Cell Titer 96 Aqueous One); conditions: for Proliferation: no cisplatin
Description: as §2

phopho-CHK2 (T68) = experiment: Western blot of phospho-CHK2 in OVCAR8 cells; conditions: OVCAR8 with cisplatin
Description: as §1

B1: hsa-mir-520h MI0003175 (nucleic acid, listed as Homo sapiens)
chain: UCCCAUGCUGUGACCCUCUAGAGGAAGCACUUUCUGUUUGUUGUCUGAGAAAAAACAAAGUGCUUCCCUUUAGAGUUACUGUUUGGGA
modifications: expressed or natural sequence
notes: synthetic mimic or stably expressed from pLemiR vector; written miR-520g/h interchangeably
- Impact on proliferation or apoptosis [1]: significantly impacted
- CDC25c and phospho-CDC25c protein level (CDC25c [2]): much lower; also recorded: decreased levels
- Sensitization to cisplatin (viability) (OVCAR8 cells [3]): significantly sensitized
- Sensitization to cisplatin (viability) (OVCAR8 cells [3]; listed as miR-520g/h): sensitized
- Sensitization to cisplatin (viability) (SKOV3ip1 cells): significantly sensitized
- Sensitization to cisplatin (viability) (SKOV3ip1 cells; listed as miR-520g/h): appeared to sensitize
- Capacity to form spheroids (SVOK3ip1 cells): decreased capacity to form spheroids
- ATM transcript level (ATM transcript): paradoxically higher
- ATM transcript level (ATM transcript; listed as miR-520g/h): actually higher
- CHK1 expression response to cisplatin (CHK1): inhibited; also recorded: blunts the responses
- CHK2 expression response to cisplatin (CHK2): blunts the responses
- CDC25C expression response to cisplatin (CDC25c [4]): blunts the responses
- BRCA1 expression response to cisplatin (BRCA1): blunts the responses
- BRCA1 expression response to cisplatin (BRCA1; listed as miR-520g/h): significantly less
- Caspase 7 expression response to cisplatin (CASP7): targeted; also recorded: blunts the responses
- Caspase 7 expression response to cisplatin (CASP7; listed as miR-520g/h): significantly less
- Capacity to form spheroids (OVCAR8 cells [5]): decreased capacity to form spheroids
- Proliferation (OVCAR8 cells [6]; OVCAR8, transient/acute mimic transfection vs non-silencing control): significantly reduced
- Proliferation (OVCAR8 cells [6]; OVCAR8, transient/acute mimic transfection vs non-silencing control, listed as Mir-520g/h): significantly increased
- Proliferation (OVCAR8 cells [6]; OVCAR8 clones stably expressing the microRNA): enhanced the proliferation
- Increase in proliferation (OVCAR8 cells [6]; mimic, transient, 96 hours following transfection, vs non-silencing control): 19%
- phospho-CHK2 (T68) level (phopho-CHK2 (T68)): increased levels
